“Also recorded” adds a separate entry of the source.
Legend:
[1] = system: transmigration of peripheral blood lymphocytes (PBL) across TNF-α/IFN-γ stimulated endothelial cells; test: PBL transendothelial migration, static adhesion (transwell) assay; type: cell-based, human; conditions: for PBL transmigration: static assay, adiponectin 0.0001-15 μg/ml, peptide 0.001-10 ng/ml, control peptides 10 ng/ml
[2] = system: lymphocyte integrin LFA-1 (CD11a/CD18; αLβ2); test: LFA-1 affinity sites on memory T cells immobilised on ICAM, activated with IP-10; type: cell-based; conditions: IP-10 10 ng/ml, S1P 10 μM, 30 minutes
Procedure: Refer to FIG. 20. 96 well plates were coated with 50 μg/ml of recombinant ICAM overnight at 4° C. The plate was blocked using PBS 4% BSA for an hour at room temperature and PBL treated with IP-10 (10 ng/ml) and/or S1P (10 μM) were added for 30 minutes. Excess of unbound PBL was washed and PBL were labelled for the intermediate affinity site of the lymphocyte integrin LFA-1 (CD11a/CD18; αLβ2) using the KIM127 antibody (10 ug/ml) and for the high affinity site using antibody 24 (10 ug/ml) at 4° C. The expression of both affinity site was measured on memory T cells using mean fluorescence intensity (MFI). […] Data is a pool of two independent experiments.

[3] = system: PBL or B cell depleted PBL transmigration across IFN-γ/TNF-α treated HUVEC; test: S1P signalling in PBL transmigration across HUVEC; type: cell-based, human
Procedure: Refer to FIG. 19. […]. Levels of SPHK1 and SPHK2 mRNA expression determined by real-time PCR of RNA from B cells and HUVEC (part D, n=2). PBL transmigration was measured across IFN-γ/TNF-α treated HUVEC pre-treated with SPHK1 specific inhibitor (5 μM) in presence of […] (10 ng/ml) (part E).

[4] = system: transmigration of B cell depleted PBL / T cells / NK cells across TNF-α/IFN-γ stimulated endothelial cells; test: B cell dependence of adiponectin inhibition (B cell depletion, B cell supernatants, Brefeldin A, NK cells); type: cell-based, human; conditions: for effect of B cell supernatants prepared in the presence of Brefeldin A: inhibitor of B cell secretion; for adiponectin inhibition of migration after removal of B cells from PBL: adiponectin 15 μg/ml, B cell depleted PBL
Procedure: B cells were isolated and incubated in presence or absence of adiponectin at 15 μg/ml. […] For some experiments, B cells were treated with Brefeldin A, an inhibitor of B cell secretion. […] This is shown in FIG. 8, where the data is shown as mean±SEM and is representative of three independent experiments analysed using one-way ANOVA and Bonferroni's multiple comparison post test. ***p<0.001, ns=non-significant.
Refer to FIG. 14. Endothelial cells were cultured in low serum medium and stimulated with TNF-α/IFN-γ for 24 hours in the absence of adiponectin. PBL transmigration was measured after removal of B cells using bead positive selection and after reconstitution with B cells that were isolated using bead negative selection in presence or absence of adiponectin (15 μg/ml). Supernatants from adiponectin-treated B cells or B cell treated with Brefeldin A to block protein secretion were added to PBL.

[5] = system: PBL migration across TNF-α/IFN-γ stimulated endothelial cells under flow; test: PBL migration, flow based adhesion assay; type: cell-based, human; conditions: adiponectin 15 μg/ml
Procedure: We have been interested in the ability of the adipocyte derived cytokine, adiponectin, to regulate the recruitment of human T cells to inflamed endothelium. […] In our in vitro studies we used static transwell assays, as well as flow based adhesion assays, to track the migration of T cells (which were in crude isolates of peripheral blood lymphocytes [PBL]) across TNF-α and IFN-γ stimulated endothelial cells.
Endothelial cells were cultured in low serum medium and stimulated with TNF-α/IFN-γ for 24 hours in the absence of adiponectin. PBL were isolated and treated with adiponectin at 0.0001 to 15 μg/ml for one hour.
Refer to FIG. 13. Endothelial cells were cultured in low serum medium and stimulated with TNF-α/IFN-γ for 24 hours in the absence of adiponectin. PBL were isolated and treated with adiponectin at 0.0001 to 15 μg/ml for one hour. […] In part (D), compound C, an AMP-kinase inhibitor, was added to PBL at 10 μg/ml for 30 minutes prior to addition of adiponectin at 15 μg/ml for 1 hour. AMPK is a signalling adapter that is required for adiponectin-receptor signalling. […] Data is a pool of at least three independent experiments and were analysed using t-test, one-way ANOVA and Dunnett's multiple comparisons post-test. **[…], ***[…].

[6] = system: PBL from T1D patients across TNF-α/IFN-γ stimulated endothelial cells; test: Transmigration of PBL from type 1 diabetes patients; conditions: adiponectin 15 μg/ml one hour or exogenous PEPITEM
Procedure: Endothelial cells were cultured in low serum medium and stimulated with TNF-α/IFN-γ for 24 hours in absence of adiponectin. […] Data was analysed using t-test and one-way ANOVA and Bonferonni's multiple comparisons post-test. ***p≦1.0001.
Endothelial cells were cultured in low serum medium and stimulated with TNF-α/IFN-γ for 24 hours in the absence of adiponectin. […] Data was analysed using t-test **p<0.01.

For `c1cc(-c2cnn3cc(-c4ccc(OCCN5CCCCC5)cc4)cnc23)ccn1` [compound C, reference compound], the “effect on adiponectin-induced decrease of PBL transmigration” value ([1]; compound C 10 μg/ml on PBL 30 minutes before adiponectin 15 μg/ml 1 hour) was “restored to normal, control levels; also recorded: restored to normal control levels; also recorded: ablated” and the “PBL migration in the absence of adiponectin” value ([1]; compound C alone) was “did not have any effects”.

In the case of `CCCCCCCCCCCCC/C=C/[C@@H](O)[C@@H](N)COP(=O)(O)O` [S1P, sphingosine-1-phosphate], the “expression of intermediate (KIM127) and high affinity (antibody 24) sites of LFA-1 on memory T cells (MFI)” value [2] is reported as “down-regulated” and the “transmigration of B cell depleted PBL pre-treated with S1P” value ([3]; exogenous S1P 0-100 μM (FIG. 19C)) is reported as “restores the inhibition of transmigration; also recorded: dose dependently inhibits T cell migration”.

For `C[C@H]1CCC/C=C/[C@@H]2C[C@H](O)C[C@H]2[C@H](O)/C=C/C(=O)O1` [Brefeldin A, reference compound], the “effect of B cell supernatants prepared in the presence of Brefeldin A” value (from here on “effect of B cell supernatants prepared”) [4] was “not able to regulate the migration of T cells”, the “effect of B cell supernatants prepared” value ([4]; listed as Brefeldin-A) was “this effect was lost” and the “effect of B cell supernatants prepared” value ([4]; listed as Brefeldine A) was “lost”.

`CCCCCCc1cccc(NC(=O)[C@H](N)CCP(=O)(O)O)c1` [W146] was tested, and the “effect on PEPITEM inhibition of lymphocyte transmigration” value ([3]; W146 10 μM with PEPITEM (FIG. 19B)) was “releases lymphocytes from the inhibitory effects of PEPITEM” and the “effect on adiponectin inhibition of lymphocyte transmigration” value ([3]; W146 10 μM, adiponectin 15 μg/ml (FIG. 19A)) was “releases lymphocytes from the inhibitory effects of Adiponectin”.

B1: adiponectin (protein)
chain: ETTTQGPGVLLPLPKGACTGWMAGIPGHPGHNGAPGRDGRDGTPGEKGEKGDPGLIGPKGDIGETGVPGAEGPRGFPGIQGRKGEPGEGAYVYRSAFSVGLETYVTIPNMPIRFTKIFYNQQNHYDGSTGKFHCNIPGLYYFAYHITVYMKDVKVSLFKKDKAMLFTYDQYQENNVDQASGSVLLHLEVGDQVWLQVYGEGERNGLYADNDNDSTFTGFLLYHDTN
notes: adipocyte-derived cytokine, used as positive control
B1 was tested, and the “PBL migration in flow based adhesion assay” value [5] was “equally effective”, the “inhibition of transmigration of PBL from T1D patients” value [6] was “refractory; also recorded: significantly compromised” and the “inhibition of transmigration of PBL from T1D patients” value ([6]; listed as Adiponectin) was “lost”. For the same molecule, the “adiponectin inhibition of migration after removal of B cells from PBL” value (“adiponectin inhibition of migration” for short) [4] was “lost”, the “adiponectin inhibition of migration” value ([4]; listed as Adiponectin) was “completely inhibited this response” and the “adiponectin inhibition of migration” value ([4]; listed as Aq) was “completely inhibited this response”. For the same molecule, the “migration of natural killer cells” value ([4]; with adiponectin (FIG. 7B)) was “not affected”, the “EC50, inhibition of PBL transmigration” value ([1]; adiponectin, static adhesion assay, PBL treated one hour, linear regression (FIG. 1B)) was 0.94 µg/mL and the EC50 ([1]; adiponectin, static adhesion assay, linear regression (FIG. 13A), read-out: EC50, inhibition of PBL transmigration) was about 40 nM. For the same molecule, the “inhibition of PBL transmigration on DMEC” value ([1]; dermal microvascular endothelium (FIG. 13C)) was “effective”, the “inhibition of PBL transmigration on HUVEC” value ([1]; endothelial cells from umbilical cord (FIG. 13C)) was “effective” and the “inhibition of PBL transmigration on HSEC” value ([1]; liver sinusoidal endothelial cells (FIG. 13C)) was “effective”. For the same molecule, the “inhibition of PBL transmigration on HSAVEC” value ([1]; saphenous vein endothelial cells (FIG. 13C)) was “not”, the PBL transmigration [1] was “significantly and dose dependently reduced; also recorded: dose dependently blocked” and the PBL transmigration ([1]; listed as Adiponectin) was “induced a decrease of transmigration”. For the same molecule, the PBL transmigration ([1]; listed as Aq) was “significantly reduced lymphocyte migration”.

Reference: patent US9839671B2, “Peptide and uses therefor” (University of Birmingham, priority 2012, dated 2017)
